# Measurements taken from patent US20240116985A1 (published 2024).
# Starred links: 1 amine or outer side, 2 acyl side, 3 side chain; linkers in the order of their positions; H or OH if unused. Positions of bridges follow the written chain, without caps; N, C: chain ends. Non-standard residues stand in square brackets, D forms with d. Primed or numbered codes have the meaning given here. *: point of attachment. PyrS2(3) = (S)-3-amino-1-((pent-4-en-1-yloxy)carbonyl)pyrrolidine-3-carboxylic acid, stapling residue, C=CCCCOC(=O)N1CC[C@@](N[*:1])(C(=O)[*:2])C1; PyrS2″ = (S)-3-amino-1-((pent-4-en-1-yloxy)carbonyl)pyrrolidine-3-carboxylic acid (stapling residue), C=CCCCOC(=O)N1CC[C@@](N[*:1])(C(=O)[*:2])C1; B5(18) = 2,2-bis(4-pentenyl)glycine (2-amino-2-(pent-4-en-1-yl)hept-6-enoic acid), stitching residue, C=CCCCC(CCCC=C)(N[*:1])C(=O)[*:2]; B5(4) = 2,2-bis(4-pentenyl)glycine = 2-amino-2-(pent-4-en-1-yl)hept-6-enoic acid (stitching residue), C=CCCCC(CCCC=C)(N[*:1])C(=O)[*:2]; TfeGA = (S)-2-amino-3-((carboxymethyl)(2,2,2-trifluoroethyl)amino)propanoic acid, O=C([C@H](CN(CC(=O)[*:3])CC(F)(F)F)N[*:1])[*:2]; PyrS2 = (S)-3-amino-1-((pent-4-en-1-yloxy)carbonyl)pyrrolidine-3-carboxylic acid, C=CCCCOC(=O)N1CC[C@@](N[*:1])(C(=O)[*:2])C1; B5(19) = 2-amino-2-(pent-4-en-1-yl)hept-6-enoic acid (bis(4-pentenyl)glycine), C=CCCCC(CCCC=C)(N[*:1])C(=O)[*:2]; TriAzDap = Dap whose side chain is a 1H-1,2,3-triazol-1-yl bearing the bracketed 4-substituent; B5 = 2-amino-2-(pent-4-en-1-yl)hept-6-enoic acid, C=CCCCC(CCCC=C)(N[*:1])C(=O)[*:2]; Phe(2-Cl) = N[C@@H](Cc1ccccc1Cl)C(=O)O; Bta = N[C@@H](Cc1csc2ccccc12)C(=O)O; αAllylPro = C=CC[C@@]1(C(=O)O)CCCN1; tBuAla = CC(C)(C)C[C@H](N)C(=O)O; 3Thi = N[C@@H](Cc1ccsc1)C(=O)O; hSer = N[C@@H](CCO)C(=O)O; MorphCH2 = C1CN(C*)CCO1
# T1: B-cat-Halo (beta-catenin HaloTag NanoBRET construct expressed in HEK293 cells) (UniProt P35222 1-781)
# T1 sequence (looked up): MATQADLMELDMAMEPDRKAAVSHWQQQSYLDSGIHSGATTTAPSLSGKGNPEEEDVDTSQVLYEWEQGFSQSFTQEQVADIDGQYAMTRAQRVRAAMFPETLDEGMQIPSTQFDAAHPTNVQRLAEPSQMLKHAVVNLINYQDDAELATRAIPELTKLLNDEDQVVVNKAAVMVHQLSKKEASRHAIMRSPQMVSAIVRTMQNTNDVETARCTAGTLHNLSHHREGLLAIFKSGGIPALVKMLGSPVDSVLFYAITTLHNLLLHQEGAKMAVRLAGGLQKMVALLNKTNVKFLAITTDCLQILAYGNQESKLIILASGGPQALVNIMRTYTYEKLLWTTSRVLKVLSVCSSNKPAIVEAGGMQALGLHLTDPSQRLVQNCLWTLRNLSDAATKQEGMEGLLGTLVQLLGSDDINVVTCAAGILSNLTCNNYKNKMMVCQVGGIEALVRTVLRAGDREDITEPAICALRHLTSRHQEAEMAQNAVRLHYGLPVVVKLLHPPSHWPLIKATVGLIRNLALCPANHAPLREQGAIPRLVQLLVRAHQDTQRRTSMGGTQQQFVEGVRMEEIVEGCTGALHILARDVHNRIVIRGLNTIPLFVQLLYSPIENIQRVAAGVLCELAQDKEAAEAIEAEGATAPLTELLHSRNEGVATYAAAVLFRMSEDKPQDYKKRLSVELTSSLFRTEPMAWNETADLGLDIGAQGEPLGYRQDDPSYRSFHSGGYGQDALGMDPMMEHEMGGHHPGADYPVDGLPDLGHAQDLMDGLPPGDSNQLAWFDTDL
# T2: full-length beta-Catenin (Uniprot ID P35222) (Homo sapiens (Human), UniProt P35222 2-781)
# T2 construct: also called bCat; B-Catenin
# T2 sequence: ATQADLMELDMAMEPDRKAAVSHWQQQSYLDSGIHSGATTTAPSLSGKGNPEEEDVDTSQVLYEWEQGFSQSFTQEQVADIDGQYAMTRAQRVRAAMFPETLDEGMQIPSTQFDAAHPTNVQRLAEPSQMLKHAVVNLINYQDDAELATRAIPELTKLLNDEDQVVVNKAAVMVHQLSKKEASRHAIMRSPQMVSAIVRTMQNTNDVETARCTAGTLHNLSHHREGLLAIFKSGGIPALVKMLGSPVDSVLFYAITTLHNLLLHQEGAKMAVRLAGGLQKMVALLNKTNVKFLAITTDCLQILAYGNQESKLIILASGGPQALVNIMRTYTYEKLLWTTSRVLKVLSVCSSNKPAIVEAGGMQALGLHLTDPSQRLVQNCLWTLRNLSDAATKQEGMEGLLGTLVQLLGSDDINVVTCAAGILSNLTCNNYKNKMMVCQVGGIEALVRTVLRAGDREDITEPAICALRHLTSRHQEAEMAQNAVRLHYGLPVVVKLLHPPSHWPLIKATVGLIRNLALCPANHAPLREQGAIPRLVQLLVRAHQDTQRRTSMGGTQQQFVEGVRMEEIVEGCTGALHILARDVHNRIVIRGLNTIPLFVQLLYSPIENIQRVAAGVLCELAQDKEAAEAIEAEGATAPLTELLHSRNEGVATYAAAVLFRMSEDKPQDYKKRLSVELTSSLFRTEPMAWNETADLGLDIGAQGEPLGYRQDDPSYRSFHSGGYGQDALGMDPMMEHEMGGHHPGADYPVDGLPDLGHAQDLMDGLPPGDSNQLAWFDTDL
# T3: beta-catenin (Homo sapiens (Human), UniProt P35222 1-781)
# T3 construct: The FP protocol says full-length beta-Catenin (Uniprot ID P35222); also called full-length beta-Catenin; bCat
# T3 sequence: T1 sequence (looked up)
# B1: I-1864 (peptide)
# peptide: Ac-[αAllylPro]D[tBuAla][B5(18)]D[TfeGA]AAF[TriAzDap](CH2Ppz)[PyrS2(3)][3Thi][Bta]Q-NH2
# modifications: staple 1-4, 4-11; not fully specified
# B2: I-1868 (peptide)
# peptide: Ac-[αAllylPro]D[tBuAla][B5(18)]D[TfeGA]AAF[TriAzDap](SO2MorphCH2)[PyrS2(3)][3Thi][Bta]Q-NH2
# modifications: staple 1-4, 4-11; not fully specified
# B3: I-1865 (peptide)
# peptide: Ac-[αAllylPro]D[tBuAla][B5(18)]D[TfeGA]AAF[TriAzDap](MorphCH2)[PyrS2(3)][3Thi][Bta]Q-NH2
# modifications: staple 1-4, 4-11; not fully specified
# B4: I-1867 (peptide)
# peptide: Ac-[αAllylPro]D[tBuAla][B5(18)]D[TfeGA]AAF[TriAzDap](MorphCH2)[PyrS2(3)][3Thi][Bta]Q-NH2
# modifications: staple 1-4, 4-11; not fully specified
# B5: I-1866 (peptide)
# peptide: Ac-[αAllylPro]D[tBuAla][B5(18)]D[TfeGA]AAF[TriAzDap](MorphCH2)[PyrS2(3)][3Thi][Bta]Q-NH2
# modifications: staple 1-4, 4-11; not fully specified
# B6: I-1863 (peptide)
# peptide: Ac-[αAllylPro]D[tBuAla][B5(18)]D[TfeGA]AAF[TriAzDap](CH2Ppz)[PyrS2(3)][3Thi][Bta]Q-NH2
# modifications: staple 1-4, 4-11; not fully specified
# B7: I-1142 (peptide)
# peptide: Ac-[αAllylPro]DF[B5]DDAAFS[PyrS2][Phe(2-Cl)][Bta][dT]-NH2
# modifications: staple 1-4, 4-11
# notes: Stapled (stitched) peptide by olefin metathesis; E/Z isomer(s) of the staples not assigned
# B8: I-1141 (peptide)
# peptide: Ac-[αAllylPro]DF[B5]DDAAFS[PyrS2][Phe(2-Cl)][Bta]T-NH2
# modifications: staple 1-4, 4-11
# notes: as for B7
# B9: I-1145 (peptide)
# peptide: Ac-[αAllylPro]DF[B5]DDAAFL[PyrS2][Phe(2-Cl)][Bta]T-NH2
# modifications: staple 1-4, 4-11
# notes: as for B7
# B10: I-1143 (peptide)
# peptide: Ac-[αAllylPro]DF[B5]DDAAFS[PyrS2][Phe(2-Cl)][Bta][hSer]-NH2
# modifications: staple 1-4, 4-11
# notes: as for B7
# B11: I-1146 (peptide)
# peptide: Ac-[αAllylPro]DF[B5]DDAAFL[PyrS2][Phe(2-Cl)][Bta][dT]-NH2
# modifications: staple 1-4, 4-11
# notes: as for B7
# B12: I-1144 (peptide)
# peptide: Ac-[αAllylPro]DF[B5]DDAAFS[PyrS2][Phe(2-Cl)][Bta]L-NH2
# modifications: staple 1-4, 4-11
# notes: as for B7
# B13: I-1418 (peptide)
# peptide: Ac-[αAllylPro]DL[B5(4)]DDAAFL[PyrS2″][Phe(2-Cl)][Bta]L-NH2
# modifications: staple 1-4, 4-11; also: staple isomer composition of earlier HPLC peak
# notes: stapled peptide
# B14: I-1422 (peptide)
# peptide: Ac-[αAllylPro]DN[B5(4)]DDAAFL[PyrS2″][Phe(2-Cl)][Bta]L-NH2
# modifications: staple 1-4, 4-11
# notes: stapled peptide
# B15: I-1402 (peptide)
# peptide: Ac-[αAllylPro]DL[B5(19)]DDAAFL[PyrS2]F[Bta]Q-NH2
# modifications: staple 1-4, 4-11
# notes: stapled peptide
# Biological target: T1, B-cat-Halo (beta-catenin HaloTag …)
# Test: cell-based or functional assay
row,NanoBRET Abs IC50 [nM],Binder
1,> 20000,B1
2,39600,B2
3,> 20000,B3
4,16400,B4
5,> 20000,B5
6,37400,B6

# Biological target: T2, full-length beta-Catenin (Uniprot ID …)
# Test: fluorescence polarization competition, 5FAM-TCF4 10-53 probe on full-length beta-catenin
# Description: The plate was incubated protected from light for 60 minutes at 20° C. prior to read. Reads were performed on a CLARIOstar plate reader (BMG Labtech) in duplicate, and data were fitted to a 1:1 binding model with hill slope using an in-house script. All provided concentrations are final concentrations.
row,EC50 [nM],Binder
1,22,B7
2,13,B8
3,18,B9
4,12,B10
5,33,B11
6,28,B12

# Biological target: T3, beta-catenin
# Test: fluorescence polarization competition; full-length beta-catenin with 5FAM-TCF4(10-53) probe as competitor
# Procedure, shortened: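 Incubate 60 minutes at 20° C. away from light, then read polarization in duplicate. Fit to 1:1 binding with hill slope.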
row,EC50 [nM],Binder
1,106,B13
2,388,B14
3,9,B15
